In PMC4686657 one finds binding signal (reference (Pfkl T-stretch is 1.88-fold)) and binding signal data, which are given here for 2 sequences.

The target of this series is GST-E2f1 (UniProt Q01094). The experiment in a line: EMSA. The conditions noted are these: increasing GST-E2f1, constant probe, EMSA: 20 mM HEPES, 10 mM KCl, 0.2 mM EDTA, 10% glycerol, 5 mM DTT (7 ul Binding Buffer D in 20 ul), 50 ng poly dI:dC, 0.15% NP-40, 1 ug BSA, 5 ug nuclear …. In general terms: A gel shift assay detects complexes by their altered migration in electrophoresis.
Sequence of UniProt Q01094 (Q01094 whole entry): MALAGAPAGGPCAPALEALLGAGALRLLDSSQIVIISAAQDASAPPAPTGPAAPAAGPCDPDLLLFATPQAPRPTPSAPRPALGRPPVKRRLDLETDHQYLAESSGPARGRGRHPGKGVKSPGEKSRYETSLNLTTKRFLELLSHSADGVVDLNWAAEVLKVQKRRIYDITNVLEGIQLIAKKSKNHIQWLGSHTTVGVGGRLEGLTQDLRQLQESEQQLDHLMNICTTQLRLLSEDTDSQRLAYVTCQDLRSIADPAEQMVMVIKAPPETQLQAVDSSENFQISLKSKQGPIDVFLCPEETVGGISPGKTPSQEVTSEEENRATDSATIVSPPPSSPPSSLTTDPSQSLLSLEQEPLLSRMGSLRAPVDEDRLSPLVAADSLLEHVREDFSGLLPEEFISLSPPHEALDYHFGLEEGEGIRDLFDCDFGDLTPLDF

In turn, “CAGGCGACAGCGGCGCGGAACGCAG (double strand) [Pfkl probe]” came in with a binding signal (reference (Pfkl T-stretch is 1.88-fold)) of 1.

In turn, “CAGGCTTTTTCGGCGCGGAACGCAG (double strand) [Pfkl T-stretch probe]” displayed a binding signal (scale: fold signal vs Pfkl probe) of 1.88.
